Measurements published in patent publication US12398199 (SYSVAX, dated 2025).

Molecular target: antigen RBD-FC protein (SARS-CoV-2 RBD protein) (SARS-CoV-2, UniProt P0DTC2 319-541)
Test: thin film interference (Gator), RBD-Fc captured on anti-human Fc probe, nano antibody in solution
Procedure: In this example, an instrument Gator® probe life was used to detect an intermolecular interaction with a thin film interference method. A sample to be detected with a concentration not less than 80% and an antigen RBD-FC protein (SARS-CoV-2 RBD protein) with a concentration not less than 90% were prepared.
2. Experimental Method: 1) Detection method of NBS1-2 sample: the nano antibody was detected with an immobilized antigen RBD-Fc (100 nM); the probe type used was the anti-human Fc antibody; and the NBS1-2 was diluted to 60,000 nM, 30,000 nM, 15,000 nM, 7,500 nM, 3,750 nM, 1,875 nM, 937.5 nM, and 0 nM with the Q buffer. 2) Detection method of NBS1-3 sample: the nano antibody was detected with the immobilized antigen RBD-Fc (100 nM); the probe type used was the anti-human Fc antibody; and the NBS1-3 was diluted to 25 nM, 12.5 nM, 6.25 nM, 3.18 nM, 1.56 nM, 0.78 nM, and 0 nM with the Q buffer. 3) Detection method of NBS1-10 sample: the nano antibody was detected with the immobilized antigen RBD-Fc (100 nM); the probe type used was the anti-human Fc antibody; and the NBS1-10 was diluted to 25 nM, 12.5 nM, 6.25 nM, 3.18 nM, 1.56 nM, 0.78 nM, and 0 nM with the Q buffer.
4) Detection method of NBS1-57 sample: the nano antibody was detected with the immobilized antigen RBD-Fc (100 nM); the probe type used was the anti-human Fc antibody; and the NBS1-57 was diluted to 25 nM, 12.5 nM, 6.25 nM, 3.18 nM, 1.56 nM, 0.78 nM, and 0 nM with the Q buffer.

Binder	Kd [nM]	koff [s⁻¹]	kon [M⁻¹ s⁻¹]
NBS1-2 (VHH, also called XBS1-2; nano antibody NBS1-2) VHH: QVQLVESGGGLVQAGDSLRLACAATGRTLSNYIMGWFRQAPGKEPLFVAAISRSGVITKYADSVEGRFTISRDNAKNTAYLQMTSLEPEDTAVYYCAASSSKYMATREYDYWGQGTQVTVSS	1410	0.00127	895
NBS1-3 (VHH, also called nano antibody NBS1-3) VHH: QVQLVESGGGLVQPGASLRLSCAASGRTFSSTGMGWFRQAPGKEREFVAAISGDGDTTYYADSVKGRFTISRDNAKNTVYLQMNSLKPWDTAVYYCASTRFTWGLYSDFVNSYEYDAWGQGTPVTVSS	0.0301	7.16e-05	2.38e+06
NBS1-10 (VHH, also called nano antibody NBS1-10) VHH: QVQLVESGGGLVQPGGSLRLSCAASGRTFSSTGMGWFRQGPGKEREFVAAISGDGDTTYYADSVKGRFTISRDNAKNTVYLQMNSLKPEDTAVYYCASARFTWGLYSDFVNSYEYDAWGQGTPVTVSS	1.31	0.00311	2.37e+06
NBS1-57 (VHH, also called nano antibody NBS1-57) VHH: QVQLVESGGGLVQPGASLRLFCVASGRTFSSTGMGWFRQAPGKEREFVAAISGPGDTTYYVDSVKGRFTISRDNAKNTVYLQMNSLKPEDTAVYYCASAGFTWGLYSDFVNSYEYNYWGQGTPVTVSS	1.29	0.00491	3.8e+06
